2 molecules from patent publication US20250215097A1 can be followed below.

The target of the assay is human CCR8 (human) (UniProt P51685). In words: cell-based or functional assay.
Sequence of human CCR8 (human) (P51685 whole entry): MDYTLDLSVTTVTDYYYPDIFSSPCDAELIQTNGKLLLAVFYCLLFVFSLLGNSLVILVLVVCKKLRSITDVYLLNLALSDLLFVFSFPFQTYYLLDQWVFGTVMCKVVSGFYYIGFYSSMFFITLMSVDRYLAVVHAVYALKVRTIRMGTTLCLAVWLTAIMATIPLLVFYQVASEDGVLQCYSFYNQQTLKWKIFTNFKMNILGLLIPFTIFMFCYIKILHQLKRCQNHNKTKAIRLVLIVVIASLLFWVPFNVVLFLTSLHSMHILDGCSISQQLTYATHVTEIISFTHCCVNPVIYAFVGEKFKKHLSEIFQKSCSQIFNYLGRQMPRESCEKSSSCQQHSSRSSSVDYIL

B1: m10A11 (chimera) (antibody, from another filing, V domains shown)
VH: EVQLVESGGRLVQPKGSLKLSCAASGFAFNTYALYWIRQAPGKGLEWVARIRSKSNNYATYYADSVKDRFTISRDDSQSMLYLQMNNLKTEDTAMYYCVRARFYYSDYGYAMDYWGQGTSVTVSS
VL: DIVMTQAAPSVPVTPGESVSISCRSSKSLLHSNGNTYLYWFLQRPGQSPQLLIYRMSNLASGVPDRFSGSGSGTAFTLRISRVEAEDVGVYYCMQHLEYPLTFGAGTKLELKR
In turn, B1 gave an ADCC EC50 (nM), NK92-CD16A effectors, HEK293-hCCR8 targets, LDH release of 0.12 nM; an ADCC EC50 (nM), PBMC FcγRIIIA158F/F effectors, HEK293-hCCR8 targets of 0.19 nM; an ADCC EC50 (nM), PBMC FcγRIIIA158V/V effectors, HEK293-hCCR8 targets of 0.05 nM; an ADCC half-maximal effective concentration (EC50), NK92-CD16A effectors, HEK293-hCCR8 targets of 0.03 nM. This molecule also registered an ADCC maximal lysis rate, NK92-CD16A effectors, HEK293-hCCR8 targets of 30%; an ADCC maximal lysis rate, PBMC FcγRIIIA158F/F effectors, HEK293-hCCR8 targets of 66%; an ADCC maximal lysis rate, PBMC FcγRIIIA158V/V effectors, HEK293-hCCR8 targets of 68%.

B2: h10A11 (antibody, from another filing, V domains shown)
VH: EVQLVESGGALVKPGGSLRLSCAASGFTFSTYALYWVRQAPGKGLEWVGRIRSKSNNYATYYADSVKDRFTISRDDSKNTLYLQMNSLKTEDTAVYYCTRARFYYSDYGYAMDYWGQGTLVTVSS
VL: DIVMTQSPDSLAVSLGERATINCRSSKSLLHSNGNTYLYWYQQKPGQPPKLLIYRMSNLASGVPDRFSGSGSGTDFTLTISSLQAEDVAVYYCMQHLEYPLTFGQGTKLEIKR
Molecule B2 had an ADCC EC50 (nM), PBMC FcγRIIIA158F/F effectors, HEK293-hCCR8 targets of 0.21 nM; an ADCC EC50 (nM), PBMC FcγRIIIA158V/V effectors, HEK293-hCCR8 targets of 0.03 nM; an ADCC maximal lysis rate, PBMC FcγRIIIA158F/F effectors, HEK293-hCCR8 targets of 61%; an ADCC maximal lysis rate, PBMC FcγRIIIA158V/V effectors, HEK293-hCCR8 targets of 63%.
